Data from publication PMC5964235, “rbFOX1/MBNL1 competition for CCUG RNA repeats binding contributes to myotonic dystrophy type 1/type 2 differences”.

Experiments:
GST-rbFOX1 = target: T1, GST-rbFOX1 (UniProt Q9NWB1); assay: EMSA; conditions: apparent KD; EMSA: 50 mM Tris-HCl pH 7.0, 75 mM NaCl, 37.5 mM KCl, 0.75 mM MgCl2, 5.25 mM DTT, 0.1 mg/mL BSA, 0.1 mg/mL bulk tRNA, 0.4 U/uL RNAsin, 20 min on ice, 10 pM …
T1 sequence: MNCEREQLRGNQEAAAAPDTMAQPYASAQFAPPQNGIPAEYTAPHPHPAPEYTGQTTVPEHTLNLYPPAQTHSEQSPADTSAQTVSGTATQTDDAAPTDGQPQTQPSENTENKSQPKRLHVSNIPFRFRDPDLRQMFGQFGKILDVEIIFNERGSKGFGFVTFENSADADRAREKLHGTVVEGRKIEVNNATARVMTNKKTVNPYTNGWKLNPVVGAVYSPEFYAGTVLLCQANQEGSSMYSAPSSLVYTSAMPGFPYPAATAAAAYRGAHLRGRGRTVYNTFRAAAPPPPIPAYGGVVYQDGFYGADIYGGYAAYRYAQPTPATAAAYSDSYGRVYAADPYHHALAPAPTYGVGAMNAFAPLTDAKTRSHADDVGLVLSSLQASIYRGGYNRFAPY

rbFOX1 RRM = target: T2, rbFOX1 RRM (UniProt Q9NWB1 117-193); assay: NMR; 15N-1H HSQC; EMSA: 50 mM Tris-HCl pH 7.0, 75 mM NaCl, 37.5 mM KCl, 0.75 mM MgCl2, 5.25 mM DTT, 0.1 mg/mL BSA, 0.1 mg/mL bulk tRNA, 0.4 U/uL RNAsin, 20 min on ice, 10 pM RNA; gel at 4 C; conditions: protein: recombinant
T2 sequence: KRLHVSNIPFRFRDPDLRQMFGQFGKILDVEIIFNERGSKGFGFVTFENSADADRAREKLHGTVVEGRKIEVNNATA

“GGGAGACCCAAGCUGGCUAGCGUUUAAACUUAAGCUUCCUGCCUGCCUGCCUGCCUGCCUGCCUGCCUGCCUGCCUGG [(CCUG)10]” showed a Kd (GST-rbFOX1) of 9.7 nM.

In the case of “GGGAGACCCAAGCUGGCUAGCGUUUAAACUUAAGCUUCCUGCCUGCCUGCCUGCCUGCCUGCCUGCCUGCCUGCCUGCCUGCCUGCCUGCCUGCCUGCCUGCCUGCCUGCCUGCCUGCCUGCCUGCCUGCCUGCCUGCCUGCCUGCCUGCCUGCCUGCCUGCCUGCCUGCCUGCCUGCCUGCCUGCCUGCCUGCCUGCCUGCCUGCCUGCCUGCCUGCCUGCCUGCCUGCCUGCCUGCCUGCCUGCCUGCCUGCCUGCCUGCCUGCCUGCCUGCCUGCCUGCCUGCCUGCCUGCCUGCCUGCCUGCCUGCCUGCCUGCCUGCCUGCCUGCCUGCCUGCCUGCCUGCCUGCCUGCCUGCCUGCCUGCCUGCCUGCCUGCCUGCCUGCCUGCCUGCCUGCCUGCCUGCCUGCCUGCCUGCCUGCCUGCCUGCCUGCCUGG [(CCUG)100]”, the Kd (GST-rbFOX1) is reported as 3.2 nM.

For “GGGAGACCCAAGCUGGCUAGCGUUUAAACUUAAGCUUCCUGCCUGCCUGCCUGCCUGCCUGCCUGCCUGCCUGCCUGCCUGCCUGCCUGCCUGCCUGCCUGCCUGCCUGCCUGCCUGCCUGCCUGCCUGCCUGCCUGCCUGCCUGCCUGCCUGCCUGG [(CCUG)30]”, the Kd (GST-rbFOX1) was 6.3 nM.

UGCAUGU (ssRNA) [UGCAUGU (NMR)]: binds (rbFOX1 RRM).

UGCCUGC (ssRNA) [UGCCUGC (NMR)]: binds (rbFOX1 RRM).
